This assay concerns the target Cytosolic His-tag version of human IRE1α (IRE1ΔN-HIS) (human).

Usually stoichiometry N stands for a count of units in the complex or per binding partner.

Turning to “Cytosolic His-tag version of human IRE1α (IRE1ΔN-HIS) (domain or fragment)”, the stoichiometry N was determined as 2.

For the origin of these results see paper PMC2818874.
